# Reference: PMC2120984
# Like-named read-outs stand apart in the source and are kept apart here.
# Experiments:
# [1] = target: alpha v integrins of OV10 cells (human (endogenous in OV10)); assay: binding of protein-coated beads to adherent cells
# [2] = target: alpha v integrins of OV10 cells (human (endogenous in OV10)); assay: binding of protein-coated beads to adherent cells; remark: listed apart in the source
substance,measurement,setting,value
Vitronectin (from UniProt P04004) (ligand),attachment index (beads bound per 100 cells) (beads bound per 100 cells),[1],181
same,attachment index (beads bound per 100 cells) (beads bound per 100 cells),[2],373
